B1: Variant A2M, bait region SEQ ID NO 126, P01023 24-1474 (protein)
chain: SVSGKPQYMVLVPSLLHTETTEKGCVLLSYLNETVTVSASLESVRGNRSLFTDLEAENDVLHCVAFAVPKSSSNEEVMFLTVQVKGPTQEFKKRTTVMVKNEDSLVFVQTDKSIYKPGQTVKFRVVSMDENFHPLNELIPLVYIQDPKGNRIAQWQSFQLEGGLKQFSFPLSSEPFQGSYKVVVQKKSGGRTEHPFTVEEFVLPKFEVQVTVPKIITILEEEMNVSVCGLYTYGKPVPGHVTVSICRKYSDASDCHGEDSQAFCEKFSGQLNSHGCFYQQVKTKVFQLKRKEYEMKLHTEAQIQEEGTVVELTGRQSSEITRTITKLSFVKVDSHFRQGIPFFGQVRLVDGKGVPIPNKVIFIRGNEANYYSNATTDEHGLVQFSINTTNVMGTSLTVRVNYKDRSPCYGYQWVSEEHEEAHHTAYLVFSPSKSFVHLEPMSHELPCGHTQTVQAHYILNGGTLLGLKKLSFYYLIMAKGGIVRTGTHGLLVKQEDMKGHFSISIPVKSDIAPVARLLIYAVLPTGDVIGDSAKYDVENCLANKVDLSFSPSQSLPASHAHLRVTAAPQSVCALRAVDQSVLLMKPDAELSASSVYNLLPEKDLTGFPGPLNDQDDEDCINRHNVYINGITYTPVSSTNEKDMYSFLEDMGLKAFTNSKIRKPKMCPQLEQYEMHGPEGEGEGEGIPENFFGVSEDLVVQISELEGRGSVEEPHTKLRKYFPETWIWDLVVVNSAGVAEVGVTVPDTITEWKAGAFCLSEDAGLGISSTASLRAFQPFFVELTMPYSVIRGEAFTLKATVLNYLPKCIRVSVQLEASPAFLAVPVEKEQAPHCICANGRQTVSWAVTPKSLGNVNFTVSAEALESQELCGTEVPSVPEHGRKDTVIKPLLVEPEGLEKETTFNSLLCPSGGEVSEELSLKLPPNVVEESARASVSVLGDILGSAMQNTQNLLQMPYGCGEQNMVLFAPNIYVLDYLNETQQLTPEIKSKAIGYLNTGYQRQLNYKHYDGSYSTFGERYGRNQGNTWLTAFVLKTFAQARAYIFIDEAHITQALIWLSQRQKDNGCFRSSGSLLNNAIKGGVEDEVTLSAYITIALLEIPLTVTHPVVRNALFCLESAWKTAQEGDHGSHVYTKALLAYAFALAGNQDKRKEVLKSLNEEAVKKDNSVHWERPQKPKAPVGHFYEPQAPSAEVEMTSYVLLAYLTAQPAPTSEDLTSATNIVKWITKQQNAQGGFSSTQDTVVALHALSKYGAATFTRTGKAAQVTIQSSGTFSSKFQVDNNNRLLLQQVSLPELPGEYSMKVTGEGCVYLQTSLKYNILPEKEEFPFALGVQTLPQTCDEPKAHTSFQISLSVSYTGSRSASNMAIVDVKMVSGFIPLKPTVKMLERSNHVSRTEVSSNHVLIYLDKVSNQTLSLFFTVLQDVPVRDLKPAIVKVYDYYETDEFAIAEYNAPCSKDLGNADYKDDDDKGASHHHHHH
B2: Variant A2M, bait region SEQ ID NO 125, P01023 24-1474 (protein)
chain: SVSGKPQYMVLVPSLLHTETTEKGCVLLSYLNETVTVSASLESVRGNRSLFTDLEAENDVLHCVAFAVPKSSSNEEVMFLTVQVKGPTQEFKKRTTVMVKNEDSLVFVQTDKSIYKPGQTVKFRVVSMDENFHPLNELIPLVYIQDPKGNRIAQWQSFQLEGGLKQFSFPLSSEPFQGSYKVVVQKKSGGRTEHPFTVEEFVLPKFEVQVTVPKIITILEEEMNVSVCGLYTYGKPVPGHVTVSICRKYSDASDCHGEDSQAFCEKFSGQLNSHGCFYQQVKTKVFQLKRKEYEMKLHTEAQIQEEGTVVELTGRQSSEITRTITKLSFVKVDSHFRQGIPFFGQVRLVDGKGVPIPNKVIFIRGNEANYYSNATTDEHGLVQFSINTTNVMGTSLTVRVNYKDRSPCYGYQWVSEEHEEAHHTAYLVFSPSKSFVHLEPMSHELPCGHTQTVQAHYILNGGTLLGLKKLSFYYLIMAKGGIVRTGTHGLLVKQEDMKGHFSISIPVKSDIAPVARLLIYAVLPTGDVIGDSAKYDVENCLANKVDLSFSPSQSLPASHAHLRVTAAPQSVCALRAVDQSVLLMKPDAELSASSVYNLLPEKDLTGFPGPLNDQDDEDCINRHNVYINGITYTPVSSTNEKDMYSFLEDMGLKAFTNSKIRKPKMCPQLEQYEMHGPSELEGRGSIPENFFGVEAIPMSIPTSEDLVVQIVEEPHTKLRKYFPETWIWDLVVVNSAGVAEVGVTVPDTITEWKAGAFCLSEDAGLGISSTASLRAFQPFFVELTMPYSVIRGEAFTLKATVLNYLPKCIRVSVQLEASPAFLAVPVEKEQAPHCICANGRQTVSWAVTPKSLGNVNFTVSAEALESQELCGTEVPSVPEHGRKDTVIKPLLVEPEGLEKETTFNSLLCPSGGEVSEELSLKLPPNVVEESARASVSVLGDILGSAMQNTQNLLQMPYGCGEQNMVLFAPNIYVLDYLNETQQLTPEIKSKAIGYLNTGYQRQLNYKHYDGSYSTFGERYGRNQGNTWLTAFVLKTFAQARAYIFIDEAHITQALIWLSQRQKDNGCFRSSGSLLNNAIKGGVEDEVTLSAYITIALLEIPLTVTHPVVRNALFCLESAWKTAQEGDHGSHVYTKALLAYAFALAGNQDKRKEVLKSLNEEAVKKDNSVHWERPQKPKAPVGHFYEPQAPSAEVEMTSYVLLAYLTAQPAPTSEDLTSATNIVKWITKQQNAQGGFSSTQDTVVALHALSKYGAATFTRTGKAAQVTIQSSGTFSSKFQVDNNNRLLLQQVSLPELPGEYSMKVTGEGCVYLQTSLKYNILPEKEEFPFALGVQTLPQTCDEPKAHTSFQISLSVSYTGSRSASNMAIVDVKMVSGFIPLKPTVKMLERSNHVSRTEVSSNHVLIYLDKVSNQTLSLFFTVLQDVPVRDLKPAIVKVYDYYETDEFAIAEYNAPCSKDLGNADYKDDDDKGASHHHHHH
B3: Variant A2M, bait region SEQ ID NO 128, P01023 24-1474 (protein)
chain: SVSGKPQYMVLVPSLLHTETTEKGCVLLSYLNETVTVSASLESVRGNRSLFTDLEAENDVLHCVAFAVPKSSSNEEVMFLTVQVKGPTQEFKKRTTVMVKNEDSLVFVQTDKSIYKPGQTVKFRVVSMDENFHPLNELIPLVYIQDPKGNRIAQWQSFQLEGGLKQFSFPLSSEPFQGSYKVVVQKKSGGRTEHPFTVEEFVLPKFEVQVTVPKIITILEEEMNVSVCGLYTYGKPVPGHVTVSICRKYSDASDCHGEDSQAFCEKFSGQLNSHGCFYQQVKTKVFQLKRKEYEMKLHTEAQIQEEGTVVELTGRQSSEITRTITKLSFVKVDSHFRQGIPFFGQVRLVDGKGVPIPNKVIFIRGNEANYYSNATTDEHGLVQFSINTTNVMGTSLTVRVNYKDRSPCYGYQWVSEEHEEAHHTAYLVFSPSKSFVHLEPMSHELPCGHTQTVQAHYILNGGTLLGLKKLSFYYLIMAKGGIVRTGTHGLLVKQEDMKGHFSISIPVKSDIAPVARLLIYAVLPTGDVIGDSAKYDVENCLANKVDLSFSPSQSLPASHAHLRVTAAPQSVCALRAVDQSVLLMKPDAELSASSVYNLLPEKDLTGFPGPLNDQDDEDCINRHNVYINGITYTPVSSTNEKDMYSFLEDMGLKAFTNSKIRKPKMCPQLEQYEMHGPSELEGRGSEAIPMSIPTKEEEGLGSIPENFFGVVEEPHTKLRKYFPETWIWDLVVVNSAGVAEVGVTVPDTITEWKAGAFCLSEDAGLGISSTASLRAFQPFFVELTMPYSVIRGEAFTLKATVLNYLPKCIRVSVQLEASPAFLAVPVEKEQAPHCICANGRQTVSWAVTPKSLGNVNFTVSAEALESQELCGTEVPSVPEHGRKDTVIKPLLVEPEGLEKETTFNSLLCPSGGEVSEELSLKLPPNVVEESARASVSVLGDILGSAMQNTQNLLQMPYGCGEQNMVLFAPNIYVLDYLNETQQLTPEIKSKAIGYLNTGYQRQLNYKHYDGSYSTFGERYGRNQGNTWLTAFVLKTFAQARAYIFIDEAHITQALIWLSQRQKDNGCFRSSGSLLNNAIKGGVEDEVTLSAYITIALLEIPLTVTHPVVRNALFCLESAWKTAQEGDHGSHVYTKALLAYAFALAGNQDKRKEVLKSLNEEAVKKDNSVHWERPQKPKAPVGHFYEPQAPSAEVEMTSYVLLAYLTAQPAPTSEDLTSATNIVKWITKQQNAQGGFSSTQDTVVALHALSKYGAATFTRTGKAAQVTIQSSGTFSSKFQVDNNNRLLLQQVSLPELPGEYSMKVTGEGCVYLQTSLKYNILPEKEEFPFALGVQTLPQTCDEPKAHTSFQISLSVSYTGSRSASNMAIVDVKMVSGFIPLKPTVKMLERSNHVSRTEVSSNHVLIYLDKVSNQTLSLFFTVLQDVPVRDLKPAIVKVYDYYETDEFAIAEYNAPCSKDLGNADYKDDDDKGASHHHHHH
B4: Variant A2M, bait region SEQ ID NO 127, P01023 24-1474 (protein)
chain: SVSGKPQYMVLVPSLLHTETTEKGCVLLSYLNETVTVSASLESVRGNRSLFTDLEAENDVLHCVAFAVPKSSSNEEVMFLTVQVKGPTQEFKKRTTVMVKNEDSLVFVQTDKSIYKPGQTVKFRVVSMDENFHPLNELIPLVYIQDPKGNRIAQWQSFQLEGGLKQFSFPLSSEPFQGSYKVVVQKKSGGRTEHPFTVEEFVLPKFEVQVTVPKIITILEEEMNVSVCGLYTYGKPVPGHVTVSICRKYSDASDCHGEDSQAFCEKFSGQLNSHGCFYQQVKTKVFQLKRKEYEMKLHTEAQIQEEGTVVELTGRQSSEITRTITKLSFVKVDSHFRQGIPFFGQVRLVDGKGVPIPNKVIFIRGNEANYYSNATTDEHGLVQFSINTTNVMGTSLTVRVNYKDRSPCYGYQWVSEEHEEAHHTAYLVFSPSKSFVHLEPMSHELPCGHTQTVQAHYILNGGTLLGLKKLSFYYLIMAKGGIVRTGTHGLLVKQEDMKGHFSISIPVKSDIAPVARLLIYAVLPTGDVIGDSAKYDVENCLANKVDLSFSPSQSLPASHAHLRVTAAPQSVCALRAVDQSVLLMKPDAELSASSVYNLLPEKDLTGFPGPLNDQDDEDCINRHNVYINGITYTPVSSTNEKDMYSFLEDMGLKAFTNSKIRKPKMCPQLEQYEMHGPIPENFFGVSELEGRGSEAIPMSIPTEGEGEGEGVEEPHTKLRKYFPETWIWDLVVVNSAGVAEVGVTVPDTITEWKAGAFCLSEDAGLGISSTASLRAFQPFFVELTMPYSVIRGEAFTLKATVLNYLPKCIRVSVQLEASPAFLAVPVEKEQAPHCICANGRQTVSWAVTPKSLGNVNFTVSAEALESQELCGTEVPSVPEHGRKDTVIKPLLVEPEGLEKETTFNSLLCPSGGEVSEELSLKLPPNVVEESARASVSVLGDILGSAMQNTQNLLQMPYGCGEQNMVLFAPNIYVLDYLNETQQLTPEIKSKAIGYLNTGYQRQLNYKHYDGSYSTFGERYGRNQGNTWLTAFVLKTFAQARAYIFIDEAHITQALIWLSQRQKDNGCFRSSGSLLNNAIKGGVEDEVTLSAYITIALLEIPLTVTHPVVRNALFCLESAWKTAQEGDHGSHVYTKALLAYAFALAGNQDKRKEVLKSLNEEAVKKDNSVHWERPQKPKAPVGHFYEPQAPSAEVEMTSYVLLAYLTAQPAPTSEDLTSATNIVKWITKQQNAQGGFSSTQDTVVALHALSKYGAATFTRTGKAAQVTIQSSGTFSSKFQVDNNNRLLLQQVSLPELPGEYSMKVTGEGCVYLQTSLKYNILPEKEEFPFALGVQTLPQTCDEPKAHTSFQISLSVSYTGSRSASNMAIVDVKMVSGFIPLKPTVKMLERSNHVSRTEVSSNHVLIYLDKVSNQTLSLFFTVLQDVPVRDLKPAIVKVYDYYETDEFAIAEYNAPCSKDLGNADYKDDDDKGASHHHHHH

target: Protease Mixtures; test: cell-based or functional assay

Protease Inhibition (% of WT); Protease Mixtures, Collagen Substrate	Protease Inhibition (% of WT); Protease Mixtures, IGD Substrate	Binder
250 % of WT	229 % of WT	B1
	150 % of WT	B2
	125 % of WT	B3
180 % of WT	229 % of WT	B4

Source: US20230250154A1
